In article PMC6018003:

Legend:
[1] = target: T1, H46R/H48Q/C146S Sod1 labeled with Alexa-546 at C57 (yeast); assay: other fluorescence titration; microplate, quenching of Alexa-546-labeled Sod1 on titration with Ccs1; Sod1 zinc bound and disulfide reduced (E, Zn-Sod1^SH); 20 mM Tris pH 7.5, 150 mM NaCl, 1 mM TCEP, 0.01% octyl glucoside and CHAPS
T1 sequence (P00445 2-154 with H46R H48Q C146S, looked up): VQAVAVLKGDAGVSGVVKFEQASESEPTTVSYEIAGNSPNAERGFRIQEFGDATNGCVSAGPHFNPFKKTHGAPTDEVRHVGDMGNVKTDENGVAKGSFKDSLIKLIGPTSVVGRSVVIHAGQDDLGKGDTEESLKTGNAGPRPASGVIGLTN

[2] = target: T1, H46R/H48Q/C146S Sod1 labeled with Alexa-546 at C57 (yeast); assay: other fluorescence titration; microplate, quenching of Alexa-546-labeled Sod1 on titration with Ccs1; Sod1 metal deficient and disulfide reduced (E, E-Sod1^SH); 20 mM Tris pH 7.5, 150 mM NaCl, 1 mM TCEP, 0.01% octyl glucoside and CHAPS
[3] = target: T1, H46R/H48Q/C146S Sod1 labeled with Alexa-546 at C57 (yeast); assay: as above; remark: listed apart in the source
[4] = target: T1, H46R/H48Q/C146S Sod1 labeled with Alexa-546 at C57 (yeast); assay: other fluorescence titration; microplate, quenching of Alexa-546-labeled Sod1 on titration with Ccs1; Sod1 zinc bound and disulfide reduced (E, Zn-Sod1^SH); 20 mM Tris pH 7.5, 150 mM NaCl, 1 mM TCEP, 0.01% octyl glucoside and CHAPS; remark: listed apart in the source

Kd [1]: 134 nM | Kd [2]: 36 nM | Kd [3]: 34 nM | Kd [4]: 114 nM
B1: copper chaperone for Sod1 (Ccs1), full-length wild type (natural protein)
chain: GHMTTNDTYEATYAIPMHCENCVNDIKACLKNVPGINSLNFDIEQQIMSVESSVAPSTIINTLRNCGKDAIIRGAGKPNSSAVAILETFQKYTIDQKKDTAVRGLARIVQVGENKTLFDITVNGVPEAGNYHASIHEKGDVSKGVESTGKVWHKFDEPIECFNESDLGKNLYSGKTFLSAPLPTWQLIGRSFVISKSLNHPENEPSSVKDYSFLGVIARSAGVWENNKQVCACTGKTVWEERKDALANNIK
